1 substance from paper PMC2229230 can be followed below.

Experiment [1] concerns the target endo-Gly0-gramicidin C. As to the kind of experiment: single-channel recording in planar lipid bilayers.
In experiment [2] the target is endo-Gly0-gramicidin C. As to the kind of experiment: single-channel recording in planar lipid bilayers. The source holds these as a separate data set.

Read-outs that look alike come from different tables or passages of the source.

In the case of endo-Gly0-gramicidin C (peptide), the average channel duration tau (dimer lifetime, 1/k-1) in experiment [1] came out at 862 ms; in experiment [2] it was 410 ms.
